Assay results: US20220356266A1 (Janssen / Centocor, published 2022)

B1: PSMB952 (antibody, V domains shown)
VH: EVQLVESGGGLVQPGGSLRLSCAASGFTFSSYAMSWVRQAPGKGLEWVSAISGGIGSTYYADSVKGRFTISRDNSKNTLWLQMNSLRAEDTAVYYCAKDGVGATPYYFDYWGQGTLVTVSS
VL: QSVLTQPPSVSAAPGQKVTISCSGSSSNIGINYVSWYQQLPGTAPKLLIYDNNKRPSGIPDRFSGSKSGTSATLGITGLQTGDEADYYCGTWDSSLSAVVFGGGTKLTVL
B2: PSMB956 (antibody, V domains shown)
VH: EVQLVESGGGLVQPGGSLRLSCAASGFTFSSYAMSWVRQAPGKGLEWVSAISGGSGSTYYADSVKGRFTISRDNSKNTLYLQMNSLRAEDSAVYYCAKDGVGATPYYFDYWGQGTLVTVSS
VL: QSVLTQPPSVSAAPGQKVTISCSGSSSNIGINYVSWYQQLPGTAPKLLIYDNNKRPSGIPDRFSGSKSGTSATLGITGLQTGDEADYYCGTWDSSLSAVVFGGGTKLTVL
B3: KL2B870 (KL2B30 in hIgG1-RE) (antibody)
heavy: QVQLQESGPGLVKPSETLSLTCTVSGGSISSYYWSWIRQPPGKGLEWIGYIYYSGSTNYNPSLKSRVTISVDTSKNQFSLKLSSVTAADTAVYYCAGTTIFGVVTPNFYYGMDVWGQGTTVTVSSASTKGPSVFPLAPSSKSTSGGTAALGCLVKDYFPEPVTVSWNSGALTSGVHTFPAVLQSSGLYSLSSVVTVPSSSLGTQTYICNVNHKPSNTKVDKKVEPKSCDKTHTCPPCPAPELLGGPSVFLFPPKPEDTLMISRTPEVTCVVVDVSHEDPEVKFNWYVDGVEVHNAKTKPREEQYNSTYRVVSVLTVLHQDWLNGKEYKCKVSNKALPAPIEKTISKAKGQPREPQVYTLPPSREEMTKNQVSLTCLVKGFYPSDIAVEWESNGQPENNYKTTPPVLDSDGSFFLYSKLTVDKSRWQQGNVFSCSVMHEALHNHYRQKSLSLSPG
light: DIQMTQSPSFLSASVGDRVTITCRASQGISSYLAWYQQKPGKAPKFLIYAASTLQSGVPSRFSGSGSGTEFTLTISSLQPEDFATYYCQQLNSYPLTFGGGTKVEIKRTVAAPSVFIFPPSDEQLKSGTASVVCLLNNFYPREAKVQWKVDNALQSGNSQESVTEQDSKDSTYSLSSTLTLSKADYEKHKVYACEVTHQGLSSPVTKSFNRGEC
B4: KL2B872.CLF (antibody, human IgG1, kappa)
heavy: not shown
light: DIQMTQSPSFLSASVGDRVTITCRASQGISSYLAWYQQKPGKAPKFLIYAASTLQSGVPSRFSGSGSGTEFTLTISSLQPEDFATYYCQQLNSYPLTFGGGTKVEIKRTVAAPSVFIFPPSDEQLKSGTASVVCLLNNFYPREAKVQWKVDNALQSGNSQESVTEQDSKDSTYSLSSTLTLSKADYEKHKVYACEVTHQGLSSPVTKSFNRGEC
modifications: low fucosylation of the Asn-297-linked N-oligosaccharide (expressed in fucosylation-deficient cells)
B5: KL2B870.CLF (antibody, human IgG1, kappa)
heavy: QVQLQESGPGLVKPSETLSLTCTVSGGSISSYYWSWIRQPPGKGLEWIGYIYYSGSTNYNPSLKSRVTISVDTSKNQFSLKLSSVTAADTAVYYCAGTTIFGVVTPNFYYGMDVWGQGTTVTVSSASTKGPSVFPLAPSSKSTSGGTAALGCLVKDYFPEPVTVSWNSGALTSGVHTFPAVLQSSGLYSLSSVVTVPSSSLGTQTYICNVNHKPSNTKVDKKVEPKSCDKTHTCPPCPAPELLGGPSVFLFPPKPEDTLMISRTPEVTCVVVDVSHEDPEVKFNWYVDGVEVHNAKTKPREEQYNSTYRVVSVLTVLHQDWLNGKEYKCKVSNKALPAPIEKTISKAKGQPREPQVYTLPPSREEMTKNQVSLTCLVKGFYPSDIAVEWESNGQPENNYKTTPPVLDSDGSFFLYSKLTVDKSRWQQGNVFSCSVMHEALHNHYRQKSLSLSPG
light: DIQMTQSPSFLSASVGDRVTITCRASQGISSYLAWYQQKPGKAPKFLIYAASTLQSGVPSRFSGSGSGTEFTLTISSLQPEDFATYYCQQLNSYPLTFGGGTKVEIKRTVAAPSVFIFPPSDEQLKSGTASVVCLLNNFYPREAKVQWKVDNALQSGNSQESVTEQDSKDSTYSLSSTLTLSKADYEKHKVYACEVTHQGLSSPVTKSFNRGEC
modifications: low fucosylation of the Asn-297-linked N-oligosaccharide (expressed in fucosylation-deficient cells)

Legend:
Assay in all cases: cell-based or functional assay
[1] = biological target: PSMA on C42B and LNCap cells (UniProt Q04609 1-750, limits assumed)
[2] = biological target: T1, KLK2 on VCaP cells (UniProt P20151 25-261, limits assumed)
[3] = biological target: T1, KLK2 on VCaP cells; remark: listed apart in the source

Chain of PSMA on C42B and LNCap cells (Q04609 whole entry): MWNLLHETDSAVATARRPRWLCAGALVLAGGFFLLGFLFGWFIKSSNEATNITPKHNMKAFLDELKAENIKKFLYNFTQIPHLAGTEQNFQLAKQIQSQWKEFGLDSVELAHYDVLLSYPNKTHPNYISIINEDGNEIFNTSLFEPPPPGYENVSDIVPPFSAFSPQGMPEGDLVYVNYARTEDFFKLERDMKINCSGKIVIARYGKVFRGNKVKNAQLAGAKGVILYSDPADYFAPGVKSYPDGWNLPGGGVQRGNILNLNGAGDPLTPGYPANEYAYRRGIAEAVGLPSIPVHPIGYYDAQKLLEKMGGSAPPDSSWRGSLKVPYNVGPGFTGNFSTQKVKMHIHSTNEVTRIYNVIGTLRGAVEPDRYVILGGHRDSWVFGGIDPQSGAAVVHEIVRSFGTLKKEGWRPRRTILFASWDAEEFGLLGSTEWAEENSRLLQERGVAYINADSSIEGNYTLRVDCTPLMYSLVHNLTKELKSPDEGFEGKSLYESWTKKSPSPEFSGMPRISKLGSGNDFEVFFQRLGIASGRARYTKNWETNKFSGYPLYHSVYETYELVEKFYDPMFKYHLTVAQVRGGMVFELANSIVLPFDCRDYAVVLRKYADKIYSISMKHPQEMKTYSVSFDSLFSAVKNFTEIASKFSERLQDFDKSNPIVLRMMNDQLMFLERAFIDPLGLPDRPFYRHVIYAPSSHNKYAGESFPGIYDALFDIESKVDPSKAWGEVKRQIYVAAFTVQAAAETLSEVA
T1 sequence (P20151 25-261 limits assumed): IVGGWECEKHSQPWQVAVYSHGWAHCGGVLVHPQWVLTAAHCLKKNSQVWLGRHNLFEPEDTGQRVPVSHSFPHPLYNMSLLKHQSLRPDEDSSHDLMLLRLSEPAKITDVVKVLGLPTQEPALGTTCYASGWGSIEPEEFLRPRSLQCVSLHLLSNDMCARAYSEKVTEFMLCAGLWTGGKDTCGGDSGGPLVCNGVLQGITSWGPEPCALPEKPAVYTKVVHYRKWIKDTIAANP

Binder | In vitro ADCC killing EC50 (M), NK cells at 24 hour, C42B cells [1] [M] | In vitro ADCC killing EC50 (M), NK cells at 24 hour, LNCap cells [1] [M] | In vitro ADCC killing EC50 (M), PBMC at 6 hour, C42B cells [1] [M] | In vitro ADCC killing EC50 (M), PBMC at 6 hour, LNCap cells [1] [M] | EC50 (M), in vitro ADCC dose-response killing by PBMC on VcaP cells at 48 hour [2] [M] | ADCC activity, percent cell killing of VcaP cells by PBMC [3] [%]
B1 | 2.45e-11 | 4.59e-11 | 3.51e-10 | 2.01e-10 | – | –
B2 | 9.96e-12 | 3.58e-11 | 4.23e-10 | 1.52e-10 | – | –
B3 | – | – | – | – | 1e-09 | ~73
B4 | – | – | – | – | 4.12e-10 | ~85
B5 | – | – | – | – | 3.54e-10 | ~89
